Assay results as given in patent publication US20030022283A1 (published 2003).
Values joined by “and” are separate entries in the source; they are usually repeats but may differ in a detail not shown here. Identical values can stand only once. Values belong to the molecule of their own block, whether it stands above or below them.

Assays:
[1] = target: T1, Rat NPY Y5 receptor, Y861 clone (rat, UniProt Q63634 1-445); assay: competition with [125I]PYY, membranes of stably transfected 293S cells
T1 sequence: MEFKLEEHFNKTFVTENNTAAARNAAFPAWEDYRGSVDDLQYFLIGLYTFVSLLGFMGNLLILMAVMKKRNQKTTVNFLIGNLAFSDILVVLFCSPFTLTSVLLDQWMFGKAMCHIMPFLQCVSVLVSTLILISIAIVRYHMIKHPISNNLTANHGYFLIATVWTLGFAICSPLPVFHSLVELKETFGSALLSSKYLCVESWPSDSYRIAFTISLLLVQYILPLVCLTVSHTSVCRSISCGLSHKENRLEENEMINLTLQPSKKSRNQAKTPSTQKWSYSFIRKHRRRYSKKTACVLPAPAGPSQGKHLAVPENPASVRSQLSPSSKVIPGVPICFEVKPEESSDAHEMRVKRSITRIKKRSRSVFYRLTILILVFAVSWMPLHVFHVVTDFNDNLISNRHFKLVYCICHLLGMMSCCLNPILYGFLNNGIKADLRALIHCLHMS

[2] = target: T2, Rat Y4/PP1 receptor (clone) (rat, UniProt Q63447 1-375); assay: competition with rat [125I]PP, rat Y4/PP1 clone
T2 construct: also called Rat Y4/PP1 (clone)
T2 sequence (Q63447 whole entry): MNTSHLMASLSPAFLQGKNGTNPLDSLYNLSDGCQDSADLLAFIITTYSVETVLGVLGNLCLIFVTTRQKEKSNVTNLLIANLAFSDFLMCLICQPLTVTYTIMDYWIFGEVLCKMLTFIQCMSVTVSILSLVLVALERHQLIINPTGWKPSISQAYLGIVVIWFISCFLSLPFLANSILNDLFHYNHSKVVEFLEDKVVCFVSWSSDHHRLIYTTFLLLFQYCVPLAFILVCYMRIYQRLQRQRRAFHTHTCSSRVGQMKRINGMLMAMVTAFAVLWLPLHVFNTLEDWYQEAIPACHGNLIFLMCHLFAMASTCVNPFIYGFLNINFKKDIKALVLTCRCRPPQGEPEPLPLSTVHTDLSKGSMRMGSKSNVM

[3] = target: Y5 receptor (clone not specified), transiently expressed in COS-7 cells; assay: saturation binding, membranes of transiently transfected cells, nonlinear regression
[4] = target: T1, Rat NPY Y5 receptor, Y861 clone; assay: competition with [125I]PYY, membranes of transiently transfected COS-7 cells
[5] = target: T1, Rat NPY Y5 receptor, Y861 clone; assay: competition with [125I]PYY, rat Y5 Y861 clone
[6] = target: Rat NPY Y5 receptor, 6B clone (Y217.24.13.6B) (rat) (UniProt Q63634); assay: competition with [125I]PYY, membranes of transiently transfected COS-7 cells, one of the two experiments averaged
[7] = target: T1, Rat NPY Y5 receptor, Y861 clone; assay: as above
[8] = target: Rat NPY Y5 receptor, Y555 clone (rat) (UniProt Q63634); assay: as above
[9] = target: Rat NPY Y5 receptor, Y555 clone (rat) (UniProt Q63634); assay: competition with [125I]PYY, membranes of transiently transfected COS-7 cells, average of two experiments
[10] = target: T1, Rat NPY Y5 receptor, Y861 clone; assay: as above
[11] = target: Human NPY Y5 receptor (human) (UniProt Q15761); assay: competition with [125I]PYY, membranes of transiently transfected cells, one of the two experiments averaged
[12] = target: T1, Rat NPY Y5 receptor, Y861 clone; assay: cell-based or functional assay
Human NPY Y5 receptor [13] = target: T3, Human NPY Y5 receptor (human, UniProt Q15761 1-445); assay: cell-based or functional assay
T3 sequence: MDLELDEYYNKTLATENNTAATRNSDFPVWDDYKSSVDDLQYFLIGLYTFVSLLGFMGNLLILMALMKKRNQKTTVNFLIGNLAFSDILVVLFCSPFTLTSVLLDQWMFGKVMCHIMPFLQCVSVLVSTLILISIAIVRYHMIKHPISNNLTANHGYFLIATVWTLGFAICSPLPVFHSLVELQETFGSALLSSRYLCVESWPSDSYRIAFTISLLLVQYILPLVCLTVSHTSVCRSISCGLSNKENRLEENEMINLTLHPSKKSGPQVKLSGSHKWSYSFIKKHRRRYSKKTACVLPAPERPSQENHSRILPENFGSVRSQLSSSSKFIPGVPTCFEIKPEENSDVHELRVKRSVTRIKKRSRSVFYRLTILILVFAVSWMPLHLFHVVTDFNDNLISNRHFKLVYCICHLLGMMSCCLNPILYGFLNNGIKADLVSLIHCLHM

[14] = target: T4, Rat NPY Y5 receptor, 6B clone (Y217.24.13.6B) (rat, UniProt Q63634 1-445); assay: competition with [125I]PYY, membranes of transiently transfected COS-7 cells
T4 construct: 445 amino acid protein; assayed as membranes of transiently transfected COS-7 cells; Has proline where Y555/Y589/Y861 have leucine in the first transmembrane domain; also called RAT 6B Clone; Y5 clone
T4 sequence: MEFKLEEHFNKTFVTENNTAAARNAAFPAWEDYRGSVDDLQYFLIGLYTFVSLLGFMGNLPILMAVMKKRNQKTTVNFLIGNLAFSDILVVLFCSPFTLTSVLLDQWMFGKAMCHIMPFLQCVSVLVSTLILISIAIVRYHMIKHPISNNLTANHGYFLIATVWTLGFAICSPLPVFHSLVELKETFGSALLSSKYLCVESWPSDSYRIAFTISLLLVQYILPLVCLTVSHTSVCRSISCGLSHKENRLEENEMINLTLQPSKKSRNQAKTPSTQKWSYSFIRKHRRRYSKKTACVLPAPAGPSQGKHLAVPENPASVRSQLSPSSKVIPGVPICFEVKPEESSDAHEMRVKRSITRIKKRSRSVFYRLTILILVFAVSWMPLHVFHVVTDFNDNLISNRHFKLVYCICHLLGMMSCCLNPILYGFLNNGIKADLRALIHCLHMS
Experimental: The binding assays were performed on GF/C Millipore (Bedford, Mass.) 96-well plates pretreated with 0.02% polyethylenimine (PEI) for at least 2 hours prior to use. The PEI was aspirated from the plates on a vacuum manifold immediately before the samples were added to the wells. All peptides, tissue and radioligand were diluted with binding buffer (25 mM Tris, 120 mM NaCl, 5 mM KCl, 1.2 mM KH₂PO₄, 2.5 mM CaCl₂, 1.2 mM MgSO₄, 0.1% BSA and 0.5 mg/ml bacitracin, pH 7.4).
Each point is the average value of triplicate determinations from a representative experiment. […] Kᵢ values were calculated from the IC₅₀ values using the Cheng-Prusoff correction, such that Kᵢ=IC₅₀/(1±(L/Kd)), where L is the radioligand concentration and Kd is the dissociation constant.

Human NPY Y5 receptor [15] = target: T3, Human NPY Y5 receptor; assay: competition with [125I]PYY, membranes of stably transfected 293 cells
Human NPY Y5 receptor [16] = target: T3, Human NPY Y5 receptor; assay: competition with [125I]PYY, membranes of transiently transfected cells, one of the two experiments averaged
Human NPY Y5 receptor [17] = target: T3, Human NPY Y5 receptor; assay: competition with [125I]PYY, membranes of transiently transfected cells, average of two experiments

Sequence of (13-36)PYY (species not stated, Table 2) (peptide) (P10082 41-64): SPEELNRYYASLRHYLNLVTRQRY

Ki [4]: 206 nM
Molecule: porcine (18-36)NPY (from UniProt P01304 27-45) (peptide)

Ki [6]: 7.9 nM and 7.5 nM
Ki [7]: 25 nM and 19 nM
IC50 [8]: 38 nM and 41 nM
IC50 [9]: 40 nM
Molecule: porcine (13-36)NPY (from UniProt P01304 22-45) (peptide)

Ki [4]: 86 nM
Ki [11]: 89 nM and 65 nM
Molecule: rat (13-36)NPY (as printed in Table 1) (from UniProt P07808 42-65) (peptide)

Ki [1]: 203 nM
EC50, forskolin-stimulated adenylate cyclase (cAMP radioimmunoassay), stably transfected 293 cells (Human NPY Y5 receptor [13]): > 1000 nM
EC50, forskolin-stimulated adenylate cyclase (cAMP radioimmunoassay), stably transfected 293S cells [12]: 112 nM
IC50 [5]: 325 nM
Ki [14]: 62 nM
Ki [4]: 296 nM
Ki (Human NPY Y5 receptor [15]): 286 nM
Ki (Human NPY Y5 receptor [16]): 290 nM and 582 nM
IC50 [2]: 0.071 nM
Ki (Human NPY Y5 receptor [17]): 436 nM
Molecule: APLEPMYPGDYATHEQRAQYETQLRRYINTLTRPRY (ligand, UniProt P06303 30-65, looked up, mature; also called rPP; rat PP) [rat pancreatic polypeptide]

The remaining lines, values behind:

Molecule: (13-36)PYY (species not stated, Table 2) (peptide)
Ki [1]: 29 nM

Molecule: rat/human (Leu31Pro34)(3-36)NPY (from UniProt P01303 31-64) (peptide)
IC50 [2]: 20 nM

Molecule: [125I]PYY (radioiodinated peptide YY) (ligand)
receptor density (Bmax) (fmol/mg protein) [3]: 140

Molecule: (32D-Trp)NPY (peptide)
IC50 [5]: 7 nM

Molecule: porcine (3-36)NPY (from UniProt P01304 12-45) (peptide)
Ki [7]: 2.3 nM
Ki [10]: 2 nM

Molecule: APLEPVYPGDNATPEQMAQYAADLRRYINMLTRPRY (ligand, UniProt P01298 30-65, looked up, mature; also called hPP) [human pancreatic polypeptide]
Ki [1]: 2.5 nM
EC50, forskolin-stimulated adenylate cyclase (cAMP radioimmunoassay), stably transfected 293S cells [12]: 1 nM
IC50 [5]: 4.9 nM
Ki [4]: 4 nM
IC50 [2]: 0.065 nM
